Values of other authors as cited in patent US8691960B2, “Oxidoreductases for enantioselective reactions” (Duke University, priority 2012, dated 2014).

Details: literature (Dang et al. 2009; Gross et al. 2010)

HsIDH1-R132C: human cytosolic NADP+-dependent isocitrate dehydrogenase (HsIDH1) R132C cancer mutant
lowering of Vmax for neomorphic activity relative to HsIDH1-R132H: 2 fold
